{"source": "a protein production outcome set (Wang et al. 2014)"}
{"test": "label from the status in PepcDB records"}
{"sequence": "AADPVVVPANMEPLTIEGNRFVTLCIMIRTTPWEVSRDVKLHPRDEVDWHTLEGVRALREAFATNNPNGRLTWGFTMNALEDGRKNYREIRDYVVECQKKYGDEVTYFPGYFPAMYLPRERVNREMSEAIEIISKMVGNGYRPQSIMGGFLSADNLRYLAEKENIHVAHAVIWSQHNIDGGGADGSPSYPFYPSTEHFCKPAQGKSDFIDCVNLDGWTMDFICARRSGQTGHGIDGYNSRRGVGPIETYKGWGLDLGHREVMHTEAIHFDKGLELNGFGWVANIWEAQMVHEFGKDLICDAMKMWVTGTKERWPDTHFVTFGEFGELWRKQYKSNDDWNYRFVERGSGLGDSYNNLEIKWFMNKEFRLALLRDWHTKNSPAYVIDFTRYDLQAHEPADPSPEKPAKDWSLINKINQKALRPQDKPVLIDKLEKEDQDLIRKYYPELLK", "protein production": "not failed"}
{"sequence": "AAGIDQYALKEFTADFTQFHIGDTVPAMYLTPEYNIKQWQQRNLPAPDAGSHWTYMGGNYVLITDTEGKILKVYDGEIFYHR", "protein production": "not failed"}
{"sequence": "AAGSENTNYFISLEQGEFVLTLVERGPVQEMPFFIELLDVLHDANLPVPYALRTTDGQALRELAGKPALLQPRLPGKHISEPNTQHCVQIGELLANLHLATREQVLERKTDRGLDWMLSEGRNFLSHLGETQRALLEKSLQEIEDLKPQIMALPRANLHADLFRDNVLFEGTHLTGLIDFYNACSGPMLYDLAIALNDWCSRENG", "protein production": "failed"}
{"sequence": "AAKGNMQCNIFVPAGTSKGKTTQTRLYGANCIEVEGTREDVALAAIESSVTHGSHYVGHNWHPLFIEGVKSIAYEIWEQCGYKAPDNFVVPAGNGSLLAGAYIGFSELLKGGEISKLPRLFGIQSESIQPFVQTFNNKEINITSEDTIAEGIKIKRSSRMNEIVQFVKETNGNFISVNEQQIQSALKEMGAQGYFIEPTSATAFAGIAQLIKTQEIKPDELTVGVVTGNGLKATNSIEHLI", "protein production": "failed"}
{"sequence": "AATDIHVHFRTPGETEKEDFGSGSLSAIYGGTTYVMDMPNNRFPITDYNAFGDKLGSIDSTSFADFSLYSMETGKNAMLLDRRSIGLKVYLGGSTNSTGTEVIEEGDIRKINEMNYPVVFHGESERCLKTHQMEEKNLRDHNLARPIDCEIEAAKYVSGLDIKTKIMAHVSSPDVTGNFLREVTPHHLLLNDEMPLGSFGKVNPPLRDSRTQKRLLDDYISGKFDILSSDHAPHTEDDKREFEFAKSGIIGVETRVPLFLALAQKKIVPLDVLYRTAIENPPSIFGIKKGKIEIGYDADFMVIDFTSMKRINDNRLHSKFPVSPFNGMDAI", "protein production": "failed"}
{"sequence": "ACDNDTEPGGTAVEKMAGDWWVTVNAFIDGKEVEDPFGAGHLQMSTYNTASNSETEMWLDDLGNFWEYKLKVNVNYAARTFSTTGFVDNVTYESKVKITDGKVLEKAATTPSGMPADSIVYMVQFDDDEDGLTYKVSGFRRTGFPADDF", "protein production": "not failed"}
{"sequence": "ACTQPSDWVPPAKNDALVIALKKVIGGRLSDAFHIRDKLQRRDAIAAVKDDVIQQLAGRLEVEGWNLAELLKEFGELEYRTMRDALLDTKVRIDGRSLEAVRP", "protein production": "not failed"}
{"sequence": "ADDFAMEMGLACVVCRQMTVASGNQLVECQECHNLYHQDCHKPQVTDKEVNXPSRGVVLCPGTRQMKRMAQKNQK", "protein production": "not failed"}
{"sequence": "ADELVMSNLHSKENYDKYSEPRGYPKGERSLNFEELKDWGPKNVIKMSTPAVNKMPHSFANLPLRFGRNVQEERSAGATANLPLRSGRNMEVSLVRRVPNLPQRFGRTTTAKSVCRMLSDLCQGSMHSPCANDLFYSMTCQHQEIQNPDQKQSRRLLFKKIDDAELKQEK", "protein production": "failed"}
{"sequence": "ADLGRKITSALRSLSNATIINEEVLNAMLKEVCTALLEADVNIKLVKQLRENVKSAIDLEEMASGLNKRKMIQHAVFKELVKVKVY", "protein production": "not failed"}
{"sequence": "ADNRAKKHGHADLSIYREWVDEHPTVFTGYDELTTDSKVLGLLSAGNKVNEIKAGEEVEVILEASPLYAEAGGQLGDRGQILMGDTVLKVNDVQKIGKKLWVHKATVAQGGLSVGDVVTAQVDSDWRHAARQAHTGTHLIHAALRQVLGPTAVQAGSMNKPGYLRFDFNYTESLTPRQLEEIQNITNQAVDSDWDVNTIETSLEEAKAMGALALFGENYGSEVRVIEVGGPFSIELCGGTHVTHSSQIGPVAILGESSVGSGVRRIEAYTGLDSFKYLAKEQALVENIASSMKVKPEELPDRIAALTQKLKDAEKAIADMRSAQLMAQATGLVAGAIEVNGVKLVAQRVSDVENMGDLRSLAADIKQRLDDVPAVVALVGEDASGKAPFVVGATKAAVSAGYKANAYAKILGQYIEGNGGGKPDMAQGSARNSSGFDQGIAAVKAEMSA", "protein production": "failed"}
{"sequence": "AEDNLGPLPENWEMAYTENGEVYFIDHNTKTTSWLDPRCLNKQQ", "protein production": "not failed"}
{"sequence": "AELQMLLEEEIPSGKRALIESYQNLTRVADYCENNYIQATDKRKALEETKAYTTQSLASVAYQINALANNVLQLLDIQASQLRRMESSINHISQTVDIHKEKVARREIGILTTNKNTSRTHKIIAPANMERPVRYIRKPIDYTVLDDVGHGVKWLKAKHGNNQPARTGTLSRTN", "protein production": "failed"}
{"sequence": "AEPTLYGRYENIKVLEIGQTFKAKMDTGALTASLSAKDIELFQRDGDDWVRFRLATKGADDKVYEHKVSRISKIKGRAEGDDEDDEGINPAKRPVVDLELCLGNKKRTVEVNLVDRSHFNFPLLIGAKALREFGAAINPARRYTADEP", "protein production": "failed"}
{"sequence": "AFAVLTTAGSRPVLSFLWVEPAARRQGLARELLMALAQQFPGIGTSVTVPETFTPLFAAAGYTPLSLQQYEMTMDLADAKSA", "protein production": "failed"}
{"sequence": "AHSSLGAPVHLWGTEEVAAWLEHLSLCEYKDIFTRHDIRGSELLHLERRDLKDLGVTKVGHMKRILCGIKELSRSAPAVEA", "protein production": "failed"}
{"sequence": "AIAAADISESSGADCKGDPRNSAKLDADYPLRVLYCGVCSLPTEYCEYMPDVAKCRQWLEKNFPNEFAKLTVENSPKQEAGISEGQGTAGEEEEKKKQKRGGRGQIKQKKKTVPQKVTIAKIPRAKKKYVTRVCGLATFEIDLKEAQRFFAQKFSCGASVTGEDEIIIQGDFTDDIIDVIQEKWPEVDDDSIEDLGEVKK", "protein production": "failed"}
{"sequence": "AIAAELGLNEHHQNEVINYMRFARSKRGLRLKTVDSCFQDLKESRLVEDTFTIDEVSEVLNGLQAVVHSEVESELINTAYTNVLLLRQLFAQAEKWYLKLQTDISELENQELLEQVAEFEKAEITSSNKKPILDVTKPKLAPLNEGGTAELLNEEILRLQEENEKLKSRLKTIEIQATNALDEKSKLEKALQDLQLDQGNQKDFIKAQDLSNLENTVAALKSEFQKTLNDKTENQKSLEENLATAKHDLLRVREQLHMAEKELEKKFQQTAAYRNMKEILTKKNDQIKDLRKRLAQYEPED", "protein production": "failed"}
{"sequence": "AIAAEMKTYSHRTMPSACTLVMCSSVESGLPGRDGRDGREGPRGEKGDPGLPGAAGQAGMPGQAGPVGPKGDNGSVGEPGPKGDTGPS", "protein production": "failed"}
{"sequence": "AIAEEDEFIGEKTFQRYCAEFIKHSQQIGDSWEWRPSKDCSDGYMCKIHFQIKNGSVMSHLGASTHGQTCLPMEEAFELPLDDCEVIETAAASEVIKYEYHVLYSCSYQVPVLYFRASFLDGRPLTLKDIWEGVHECYKMRLLQGPWDTITQQEHPILGQPFFVLHPCKTNEFMTPVLKNSQKINKNVNYITSWLSIVGPVVGLNLPLSYAKATSQDERNVP", "protein production": "failed"}
{"sequence": "AIAITGETEPACVEDASQLAEQRNGAPVMEAGCAAVPVEANATKRGYWRQRTLHSWFIGRKPQRTCIAVDIDEVLAFFVPELCAFHNKRYGTRLQATDFHSYRFAEVWGGTDTDAIRKVHEFFRTPAFQELQPIPGAKQVLQSRLARFRFVVVTSRQLVIEQETRAWLDKHFSGIFEAIYLGNQWALHPNGEHGTGVGSAAQEPQRLFANRRRKSQVCKACGAAVLIDDLPHNLLDCSENGVFGVLFDFQGQYGWSKSPAFESKDIAVVHSWEAVGELLDRL", "protein production": "failed"}
{"sequence": "AIANSSVSTHGTGDCPVNCTKSEDFAPSKLGTKEYWDGAYKRELQTYKDIGDVGEIWFGEESMHRVIRWMEAQNISENAAILDIGTGNGMFLVELARHGFSNLTGIDYSKAALELTTNILVEEGLKNINIQVEDFLNPSTELKGFDVCIDKGTFDAISLNPEDREEAKKHYVTSLRAVMRPNGFFIITSCNWTKEQLLEIFKPGFELVRELPTPNFQFGGVTGNSVTALVFKQTD", "protein production": "failed"}
{"sequence": "AIATVYRLPASISFDEVIQRVSRENVGAVVRCAVGEEQLVVATSHRQEAWTVLKSFLINRCVPMEAREEEPSLGLEKPQYWDRLPANGRTPMERSDHGRGLEFQKSSQDDPVFEKECLLSGYGAQAPSQTGTESLQIPQVALLEEPVPPAYLKKAENAAVSFCGLVRKDRLSSDRVVSALVYESYREMAMLYIHRIAAEQNLHMFVHTVAGSVPVGSVSVLVTGPSVESVRLALEALKRYVPIWKEDVSVPCI", "protein production": "failed"}
{"sequence": "AIREREMKVLNIQVTSSCNYACGMCPFHGDGYSGEYFDERPTIRRDMSLDEIKLILEKASMEGFEWIDLTPNGEFFTHKQWYQILSLIKEFGLKIMITSNGGLLGEEDIKRACEVGVDHIVISVDSLSYESYKKIRKPATKLAFERAIHAPLYFKKYG", "protein production": "failed"}
{"sequence": "AKAPQKKHKVLLQQFNTGDERAQKRQPIRGSDEVLFKVYCMDHTYTTIRVPVATSVKEVISAVADKLGSGEGLIIVKMSSGGEKVVLKPNDVSVFTTLTINGRLFACPREQFDSLTPLPEQEGPTVGTVGTFELMSSKDLAYQMTIYDWELFNCVHELELIYHTFGRHNFKKTTANLDLFLRRFNEIQFWVVTEICLCSQLSKRVQLLKKFIKIAAHCKEYKNLNSFFAIVMGLSNVAVSRLALTWEKLPSKFKKFYAEFESLMDPSRNHRAYRLTVAKLEPPLIPFMPLLIKDMTFTHEGNKTFIDNLVNFEKMRMIANTARTVRYYRSQPFNPDAAQANKNHQDVRSYVRQLNVIDNQRTLSQMSHRLEPRRP", "protein production": "failed"}
{"sequence": "AKDALLLWCQMKTAGYPNVNVHNFTTSWRDGLAFNAIVHKHRPDLLDFESLKKCNAHYNLQNAFNLAEKELGLTKLLDPEDVNVDQPDEKSIITYVATYYHYFSKMKALAVEGK", "protein production": "not failed"}
{"sequence": "ALPPEPKEENAEPVSKLRIRTPSGEFLERRFLASNKLQIVFDFVASKGFPWDEYKLLSTFPRRDVTQLDPNKSLLEVKLFPQETLFLEAKE", "protein production": "failed"}
{"sequence": "ANFADSGKSLPPSMTSVPVTPVAAHTSSTPLTDIAADTTANDAPAIAAEFGQPDWPEEFGRKITWLATQRMQAAELKLHPAHLGPIEISLQLSDDQRLTAQFISHHPAVREAIEANLPRLREIMAENGITLADTSVSADT", "protein production": "not failed"}
{"sequence": "ANGTVATAAIQPKKVKGVGFGDIFKDKPIKLRPRSIEVENDFLPVEKTIGKKLPATTATPDSSKTEMDSRTKSKDYCKVIFPYEAQNDDELTIKEGDIVTLINKDCIDVGWWEGELNGRRGVFPDNFVKLLPPDFEKEGNR", "protein production": "failed"}
{"sequence": "ANMHIFENPSALAEALADDVGARLAAAIAARGTASLAVSGGSTPKAFFRSLSRRELDWSKVTVTLVDERFVPPENDRSNHRLVADNLLKDGAAEARFVPLYQAAETAEAAAAIASGRTASLGAPLDVVVLGMGTDGHTASFFPGGTRLEEALDPTTPRGVITMEAEGAGEPRLTFTFSSLQDAGYLVLHIEGSGKKEVLAQAEASGDEAEMPIRAMLRRAASPLQIYWAP", "protein production": "failed"}
{"sequence": "APFFEMKLKHYKIFEGMPVTFTCRVAGNPKPKIYWFKDGKQISPKSDHYTIQRDLDGTCSLHTTASTLDDDGNYTIMAANPQGRISCTGRLMVQAVN", "protein production": "not failed"}
{"sequence": "APGTLVLAGTPIGDITDAPPRLAQELAGADVVAAEDTRRLRRLTQALGVQPAGRVVSYFEGNEAARTPELVEALLDGSRVLLVTDAGMPSVSDPGYRLVAAAVAKDIRVTAVPGPS", "protein production": "failed"}
{"sequence": "AQDLYQNLESKVAQKTREVEEQNLRLKTLYDMTSFLHQQRALDETCQGFIRRLMQLTGADAANARLVDPERGKLDQIAQQGLPAEMALNEECIPDDACHCGEAVQQPFAVLRHIGELEGEEIRHCRKAGFASIAVFHIRNQREDVGIFTLYFRQKRVLSMAEQMLIETLGQHLGVAIEN", "protein production": "failed"}
